Literature values, collected in article PMC7261628.

Molecular target: Cathepsin B propeptide (prosegment) (UniProt P07858)
Experiment: Enzyme inhibition kinetics

Ki (pH 4.0)	Ki (pH 6.0)	Substance
82 nM	3.7 nM	Cathepsin B, mature enzyme (wild type)
2 nM		Cathepsin B His110Ala mutant H110A
